Experimental data published in US20230407373A1 (priority 2020, published 2023).

B1: RBFOX2 (protein, UniProt O43251 1-390, looked up)
RNA binding protein fox-1 …: MQNEPLTPGYHGFPARDSQGNQEPTTTPDAMVQPFTTIPFPPPPQNGIPTEYGVPHTQDYAGQTGEHNLTLYGSTQAHGEQSSNSPSTQNGSLTTEGGAQTDGQQSQTQSSENSESKSTPKRLHVSNIPFRFRDPDLRQMFGQFGKILDVEIIFNERGSKGFGFVTFENSADADRAREKLHGTVVEGRKIEVNNATARVMTNKKMVTPYANGWKLSPVVGAVYGPELYAASSFQADVSLGNDAAVPLSGRGGINTYIPLISLPLVPGFPYPTAATTAAAFRGAHLRGRGRTVYGAVRAVPPTAIPAYPGVVYQDGFYGADLYGGYAAYRYAQPATATAATAAAAAAAAYSDGYGRVYTADPYHALAPAASYGVGAVASLYRGGYSRFAPY
B2: KRT6A (protein, UniProt P02538 2-564, looked up)
Keratin, type II cytoskeletal …: ASTSTTIRSHSSSRRGFSANSARLPGVSRSGFSSVSVSRSRGSGGLGGACGGAGFGSRSLYGLGGSKRISIGGGSCAISGGYGSRAGGSYGFGGAGSGFGFGGGAGIGFGLGGGAGLAGGFGGPGFPVCPPGGIQEVTVNQSLLTPLNLQIDPTIQRVRAEEREQIKTLNNKFASFIDKVRFLEQQNKVLETKWTLLQEQGTKTVRQNLEPLFEQYINNLRRQLDSIVGERGRLDSELRGMQDLVEDFKNKYEDEINKRTAAENEFVTLKKDVDAAYMNKVELQAKADTLTDEINFLRALYDAELSQMQTHISDTSVVLSMDNNRNLDLDSIIAEVKAQYEEIAQRSRAEAESWYQTKYEELQVTAGRHGDDLRNTKQEIAEINRMIQRLRSEIDHVKKQCANLQAAIADAEQRGEMALKDAKNKLEGLEDALQKAKQDLARLLKEYQELMNVKLALDVEIATYRKLLEGEECRLNGEGVGQVNISVVQSTVSSGYGGASGVGSGLGLGGGSSYSYGSGLGVGGGFSSSSGRAIGGGLSSVGGGSSTIKYTTTSSSSRKSYKH
B3: BAZ1B (protein, UniProt Q9UIG0 1-1483, looked up)
Tyrosine-protein kinase BAZ1B: MAPLLGRKPFPLVKPLPGEEPLFTIPHTQEAFRTREEYEARLERYSERIWTCKSTGSSQLTHKEAWEEEQEVAELLKEEFPAWYEKLVLEMVHHNTASLEKLVDTAWLEIMTKYAVGEECDFEVGKEKMLKVKIVKIHPLEKVDEEATEKKSDGACDSPSSDKENSSQIAQDHQKKETVVKEDEGRRESINDRARRSPRKLPTSLKKGERKWAPPKFLPHKYDVKLQNEDKIISNVPADSLIRTERPPNKEIVRYFIRHNALRAGTGENAPWVVEDELVKKYSLPSKFSDFLLDPYKYMTLNPSTKRKNTGSPDRKPSKKSKTDNSSLSSPLNPKLWCHVHLKKSLSGSPLKVKNSKNSKSPEEHLEEMMKMMSPNKLHTNFHIPKKGPPAKKPGKHSDKPLKAKGRSKGILNGQKSTGNSKSPKKGLKTPKTKMKQMTLLDMAKGTQKMTRAPRNSGGTPRTSSKPHKHLPPAALHLIAYYKENKDREDKRSALSCVISKTARLLSSEDRARLPEELRSLVQKRYELLEHKKRWASMSEEQRKEYLKKKREELKKKLKEKAKERREKEMLERLEKQKRYEDQELTGKNLPAFRLVDTPEGLPNTLFGDVAMVVEFLSCYSGLLLPDAQYPITAVSLMEALSADKGGFLYLNRVLVILLQTLLQDEIAEDYGELGMKLSEIPLTLHSVSELVRLCLRRSDVQEESEGSDTDDNKDSAAFEDNEVQDEFLEKLETSEFFELTSEEKLQILTALCHRILMTYSVQDHMETRQQMSAELWKERLAVLKEENDKKRAEKQKRKEMEAKNKENGKVENGLGKTDRKKEIVKFEPQVDTEAEDMISAVKSRRLLAIQAKKEREIQEREMKVKLERQAEEERIRKHKAAAEKAFQEGIAKAKLVMRRTPIGTDRNHNRYWLFSDEVPGLFIEKGWVHDSIDYRFNHHCKDHTVSGDEDYCPRSKKANLGKNASMNTQHGTATEVAVETTTPKQGQNLWFLCDSQKELDELLNCLHPQGIRESQLKERLEKRYQDIIHSIHLARKPNLGLKSCDGNQELLNFLRSDLIEVATRLQKGGLGYVEETSEFEARVISLEKLKDFGECVIALQASVIKKFLQGFMAPKQKRRKLQSEDSAKTEEVDEEKKMVEEAKVASALEKWKTAIREAQTFSRMHVLLGMLDACIKWDMSAENARCKVCRKKGEDDKLILCDECNKAFHLFCLRPALYEVPDGEWQCPACQPATARRNSRGRNYTEESASEDSEDDESDEEEEEEEEEEEEEDYEVAGLRLRPRKTIRGKHSVIPPAARSGRRPGKKPHSTRRSQPKAPPVDDAEVDELVLQTKRSSRRQSLELQKCEEILHKIVKYRFSWPFREPVTRDEAEDYYDVITHPMDFQTVQNKCSCGSYRSVQEFLTDMKQVFTNAEVYNCRGSHVLSCMVKTEQCLVALLHKHLPGHPYVRRKRKKFPDRLAEDEGDSEPEAVGQSRGRRQKK
B4: DDX21 (protein, UniProt Q9NR30 1-783, looked up)
Nucleolar RNA helicase 2: MPGKLRSDAGLESDTAMKKGETLRKQTEEKEKKEKPKSDKTEEIAEEEETVFPKAKQVKKKAEPSEVDMNSPKSKKAKKKEEPSQNDISPKTKSLRKKKEPIEKKVVSSKTKKVTKNEEPSEEEIDAPKPKKMKKEKEMNGETREKSPKLKNGFPHPEPDCNPSEAASEESNSEIEQEIPVEQKEGAFSNFPISEETIKLLKGRGVTFLFPIQAKTFHHVYSGKDLIAQARTGTGKTFSFAIPLIEKLHGELQDRKRGRAPQVLVLAPTRELANQVSKDFSDITKKLSVACFYGGTPYGGQFERMRNGIDILVGTPGRIKDHIQNGKLDLTKLKHVVLDEVDQMLDMGFADQVEEILSVAYKKDSEDNPQTLLFSATCPHWVFNVAKKYMKSTYEQVDLIGKKTQKTAITVEHLAIKCHWTQRAAVIGDVIRVYSGHQGRTIIFCETKKEAQELSQNSAIKQDAQSLHGDIPQKQREITLKGFRNGSFGVLVATNVAARGLDIPEVDLVIQSSPPKDVESYIHRSGRTGRAGRTGVCICFYQHKEEYQLVQVEQKAGIKFKRIGVPSATEIIKASSKDAIRLLDSVPPTAISHFKQSAEKLIEEKGAVEALAAALAHISGATSVDQRSLINSNVGFVTMILQCSIEMPNISYAWKELKEQLGEEIDSKVKGMVFLKGKLGVCFDVPTASVTEIQEKWHDSRRWQLSVATEQPELEGPREGYGGFRGQREGSRGFRGQRDGNRRFRGQREGSRGPRGQRSGGGNKSNRSQNKGQKRSFSKAFGQ
B5: PKP1 (protein, UniProt Q13835 1-747, looked up)
Plakophilin-1: MNHSPLKTALAYECFQDQDNSTLALPSDQKMKTGTSGRQRVQEQVMMTVKRQKSKSSQSSTLSHSNRGSMYDGLADNYNYGTTSRSSYYSKFQAGNGSWGYPIYNGTLKREPDNRRFSSYSQMENWSRHYPRGSCNTTGAGSDICFMQKIKASRSEPDLYCDPRGTLRKGTLGSKGQKTTQNRYSFYSTCSGQKAIKKCPVRPPSCASKQDPVYIPPISCNKDLSFGHSRASSKICSEDIECSGLTIPKAVQYLSSQDEKYQAIGAYYIQHTCFQDESAKQQVYQLGGICKLVDLLRSPNQNVQQAAAGALRNLVFRSTTNKLETRRQNGIREAVSLLRRTGNAEIQKQLTGLLWNLSSTDELKEELIADALPVLADRVIIPFSGWCDGNSNMSREVVDPEVFFNATGCLRKRLGMRELLALVPQRATSSRVNLSSADAGRQTMRNYSGLIDSLMAYVQNCVAASRCDDKSVENCMCVLHNLSYRLDAEVPTRYRQLEYNARNAYTEKSSTGCFSNKSDKMMNNNYDCPLPEEETNPKGSGWLYHSDAIRTYLNLMGKSKKDATLEACAGALQNLTASKGLMSSGMSQLIGLKEKGLPQIARLLQSGNSDVVRSGASLLSNMSRHPLLHRVMGNQVFPEVTRLLTSHTGNTSNSEDILSSACYTVRNLMASQPQLAKQYFSSSMLNNIINLCRSSASPKAAEAARLLLSDMWSSKELQGVLRQQGFDRNMLGTLAGANSLRNFTSRF

Tested on: HCoV-OC43 gRNA and sgRNA
Type: binding
Conditions: 24 hpi; type n_24_v; tested against no-probe control; FDR<10%

Row | Molecule | target (unweighted spectral count, OC43 Probe II capture)
1 | B1 | 4
2 | B2 | 4
3 | B3 | 4
4 | B4 | 7
5 | B5 | 4

Same assay, conditions: 36 hpi; type n_36_v; tested against no-probe control; FDR<10%

Row | Molecule | target (unweighted spectral count, OC43 Probe II capture)
6 | B1 | 4
